{"source": "paper doi:10.1101/2025.08.09.669497", "about": "(bioRxiv, 2025)", "molecules": {"B1": {"name": "ORT-VHH17 (VHH)", "VHH": "EVQLVESGGGLVQAGGSLRLSCAASGRDLSNYDMGWFRQAPGKEREFVATIKWRSGGTNHAESVKGRFTISRDNAKNTVYLQMSSLKPEDTAVYYCAAAPNWLGYSFKVDDYIYWGQGTQVTVSS"}, "B2": {"name": "319C07 (Potravitug), human IgG monoclonal antibody (antibody, V domains shown)", "VH": "QVQLQQWGAGLLKPSETLSLTCAVYRGSFSAYYWTWFRQPPGKGLEWIGEINHRGYTNYNPSLRGRVSISVDTSKKQFSLKLRSVNAADTAVYYCATLRSTSGWHDYFDYWGQGTLVTVSS", "VL": "EIVLTQSPGTLSLSPGERATLSCRASQSVSSSYLAWYQQTPGQAPRLLIYGASSRATGIPDRFSGSGSGTDFTLTISRLEPEDFVVYFCLQYGSSPLTFGPGTKVDIK"}, "B3": {"name": "Potravitug single-chain variable fragment (scFv-319C07) (scFv, V domains shown)", "VH": "B2 VH", "VL": "B2 VL"}, "B4": {"name": "ORT-VHH16 (VHH)", "VHH": "EVQLVESGGGLVQAGGSLRLSCAASGRTFDHYAMGWFRQAPGKERELVARISSGGGTTNYADSVKGRFTISRDNAKNTVSLQMNSLKPEDTAVYYCVGEIQYGTRYYWGQGTQVTVSS"}}, "key": {"[1]": {"molecular_target": "319C07 (Potravitug), human IgG monoclonal antibody (human)", "experiment": "BLI"}, "[2]": {"molecular_target": "BKPyV VP1 pentameric core (residues 26-297) (BK polyomavirus (BKPyV)) (UniProt P03088)", "experiment": "crystal structure"}, "[3]": {"molecular_target": "T1, BKPyV VP1 pentameric core (residues 26-297) (BK polyomavirus, strain ; …, UniProt P03088)", "experiment": "crystal structure"}, "[4]": {"molecular_target": "BKPyV VP1 pentamer, genotype III-AS (M23122), ALFA-tagged (BK polyomavirus (BKPyV), strain AS, UniProt P14996)", "experiment": "BLI"}, "[5]": {"molecular_target": "T1, BKPyV VP1 pentameric core (residues …)", "experiment": "crystal structure", "remark": "listed apart in the source"}, "[6]": {"molecular_target": "T1, BKPyV VP1 pentameric core (residues …)", "experiment": "crystal structure", "remark": "listed apart in the source"}}, "note": "Read-outs that look alike come from different tables or passages of the source.", "data": [{"molecule": "BKPyV VP1 single-point mutant K69N in the Dunlop background (from UniProt P03088 1-362) (natural protein)", "values": [{"measurement": "Kd", "setting": "[1]", "value": 4.5, "unit": "µM"}, {"measurement": "fold reduction of affinity against the Dunlop background", "setting": "[1]", "value": "> 1000", "unit": "fold"}]}, {"molecule": "BKPyV VP1 pentameric core (residues 26-297) (from UniProt P03088 26-297) (domain or fragment)", "values": [{"measurement": "stoichiometry N", "setting": "[2]", "value": 5}]}, {"molecule": "B1", "values": [{"measurement": "stoichiometry N", "setting": "[3]", "value": 1, "unit": "nanobody per VP1 monomer"}]}, {"molecule": "B2", "values": [{"measurement": "binding result", "setting": "[4]", "value": "binds"}]}, {"molecule": "B3", "values": [{"measurement": "stoichiometry N", "setting": "[5]", "value": 3, "unit": "scFv per VP1 pentamer"}]}, {"molecule": "B4", "values": [{"measurement": "stoichiometry N", "setting": "[6]", "value": 1, "unit": "nanobody per VP1 monomer"}]}]}
